The source of these data is a protein production outcome set (Wang et al. 2014).
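Note: failed if final PepcDB status was selected cloned or expressed and not failed if soluble or beyond.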

A short description of this data set: label from the status in PepcDB records.
For the sequence “MFALEELPRIPDFTERAICELFELYASIESVQLPPQSSDATNSSSATAPGNIFSAERGPRYLGPRALVRFFTELGVDMRSLAALAFAWLGRWQYPCHCREEGFARGVRYALWALDRRQHNEPRRWEQVQATCSTLLETSIWPRESTALFERLRSAFPDAVLSYTQRSAEAALDFYLFAFDLNRQSPYRRSLSLTDARYLWKQFLSESCYLATPASPGTPAGVANQPWRYLEHFDAYLESRCGMAGTIISRDTWYWVLMFARETQVAGSSFFANYNQGDAWPVLLDGFVEYLRENKLLSS”, the protein production result is given as “not failed”.
To “MFALVLAAGRSRRFDGDKRKALLPCGRTLLTACLETAGKVFTETGVVLREDDEVQTLGIPSKVTIIRCKHADLGMGHSLAAGIAAALNSSADAVAILLADMPWIEPQTLRDLARLADPQRIALPMHEGQRGHPVIIGRRFWPRLLALEGDQGAKALITNNPAFCDVMNCDDPGVLRDADTRSALAIACRQHLTAGRDLEHHHHHH” belongs “failed”; to “MFANKILTEKDTDQIRFSILASGSSGNATLVETGDQKILIDCGLSGKKMEGLFAQVGRDMNDLDAILITHEHSDHIKGLGVLARKYKLPIYANAKTWKAMDNMIGEVSSDQKFQFDMETVKNFGSMQVESFGVSHDAIEPMFYIFHKGNKKFVMITDTGYVSDRMKGHIAGADAYLFESNHDVEMLRMGRYPWNVKRRILGDEGHVSNEDAAIAMSEVITDQTKRIYLGHLSKDNNMKELARMSVTQTLMAEGIDVGGKLEIFDTDPDNATSIFTILEHHHHHH”, “failed”; to “MFASCHCVPRGRRTMKMIHFRSSSVKSLSQEMRCTIRLLDDSEISCHIQRETKGQFLIDHICNYYSLLEKDYFGIRYVDPEKQRHWLEPNKSIFKQMKTHPPYTMCFRVKFYPHEPLKIKEELTRYLLYLQIKRDIFHGRLLCSFSDAAYLGACIVQAELGDYDPDEHPENYISEFEIFPKQSQKLERKIVEIHKNELRGQSPPVAEFNLLLKAHTLETYGVDPHPCKDSTGTTTFLGFTAAGFVVFQGNKRIHLIKWPDVCKLKFEGKTFYVIGTQKEKKAMLAFHTSTPAACKHLWKCGVENQAFYKYAKSSQIKTVSSSKIFFKGSRFRYSGKVAKEVVEASSKIQREPPEVHRANITQSRSSHSLNKQLIINMEPLQPLLPSPSEQEEELPLGEGVPLPKEENISAPLISSSPVKAAREYEDPPSEEEDKIKEEPLTISELVYNPSASLLPTPVDDDEIDMLFDCPSRLELEREDTDSFEDLEADENAFLIAEEEELKEARRALSWSYDILTGHIRVNPLVKSFSRLLVVGLGLLLFVFPLLLLLLESGIDLSFLCEIRQTPEFEQFHYEYYCPLKEWVAGKVHLILYMLGCS”, “failed”.
In the case of “MFCGRFANFIMRDVINFIKKYNNFVIIGHKDPDFDCIGSSLALSSFLSRIGKNSILLNEGPFIRKEIVPFKDKFLSEWPNIEISEYSVIILDCSILDRIGDEFIFYVKNMPTLVIDHHMSGEKLECEGYIDPFAPSTTFLIEKLIREFGHDLTKEEAWYILVGFCTDTGFFKFISRSDPEPFEMVARLVSKGISLKEVYSYIETTKSLKSIETLKLMLNSLESYWNGKVLFTFLSSSSSGKDGGVSGVNELFYMILSNVENNEILGILKEMEDGSIIVGLRSKDSFDVGKLAEDFGGGGHKNASGFRIKQGSLEIVKNRMLAYIKDNIYLLEHHHHHH” it was “failed”.
For the sequence “MFDATRAAFLGVAVFISVLLVASFFSPTPGRAVEPAPAGAPAQEGSLPHDGLGSIKPIHDVDLGGVEQPPLPAPVDPDPSFNPQPPFAPGELREGFVDVGNGNIRRYLIHVGTNYQPHAPELTPVVFGFGGWKDTPEKFADYSRFGLTDFGANAMIIYPEGIARAWEGAPYAATRVGDDVHFVRTILNAVDADYRIDRSRVYAVGMSNGGGMAASLACHAPDLVAGVVSVSAAYYEPVVADCAPGAVATLDIHGTHDEVIAYQGGMRHGAPFLGAEQVVAGVAARNGCGPALPPRWIEGPAEHYGFAGCAAPVEHVRVLGQKHVWNGVPHATTLAWEFLHHQHK”, the protein production result is “failed”.
Turning to “MFDNLTDRLSRTLRNISGRGRLTEDNVKDTLREVRMALLEADVALPVVREFINRVKEKAVGHEVNKSLTPGQEFVKIVRNELVAAMGEENQTLNLAAQPPAVVLMAGLQGAGKTTSVGKLGKFLREKHKKKVLVVSADVYRPAAIKQLETLAEQVGVDFFPSDVGQKPVDIVNAALKEAKLKFYDVLLVDTAGRLHVDEAMMDEIKQVHASINPVETLFVVDAMTGQDAANTAKAFNEALPLTGVVLTKVDGDARGGAALSIRHITGKPIKFLGVGEKTEALEPFHPDRIASRILGMGDVLSLIEDIESKVDRAQAEKLASKLKKGDGFDLNDFLEQLRQMKNMGGMASLMGKLPGMGQIPDNVKSQMDDKVLVRMEAIINSMTMKERAKPEIIKGSRKRRIAAGCGMQVQDVNRLLKQFDDMQRMMKKMKKGGMAKMMRSMKGMMPPGFPGR”, the protein production result is “failed”.
In the case of “MFDQYRKTILAGAVALTCGLTAASTFAAGFQPAQPAGKLGAVVVDPYGNAPLTALVELDSHIISDVKVTVHGKGEKGVPVTYTVGKESLETYDGIPIFGLYQKFANNVTVEYKENGKAMKDDYVVQTSAIVNHYMDNRSISDLQQTKVIKVAPGFEDRLYLVNTHTFTPQGAEFHWHGEKDKNAGILDAGPAGGALPFDIAPYTFVVDTQGEYRWWLDQDTFYDGHDMNINKRGYLMGIRETPRGTFTAVQGQHWYEFDMMGQILADHKLPRGFLDASHESIETVNGTVLLRVGKRVTAKKTAYMFILFVTKSLRSISLAALEHHHHHH”, the protein production entry is “failed”.
To “MFDQYRKTILAGAVALTCGLTAASTFAAGFQPAQPAGKLGAVVVDPYGNAPLTALVELDSHIISDVKVTVHGKGEKGVPVTYTVGKESLETYDGIPIFGLYQKFANNVTVEYKENGKAMKDDYVVQTSAIVNHYMDNRSISDLQQTKVIKVAPGFEDRLYLVNTHTFTPQGAEFHWHGEKDKNAGILDAGPAGGALPFDIAPYTFVVDTQGEYRWWLDQDTFYNGHDMNINKRGYLMGIRETPRGTFTAVQGQHWYEFDMMGQVLADHKLPRGFLDASHESIETVNGTVLLRVGKRDYRKEDGIHVHTIRDQIIEVDKSGRVVDVWDLTKILDPMRDALLGALDAGAVCVNVDLAHAGQQAKLEPDTPYGDALGVGAGRNWAHVNSIAYDAKDDSIILSSRHQGIVKIGRDKQVKWILAPSKGWNKQLASKLLKPVDDHGKPLTCDENGKCKDTDFDFTYTQHTAWLSSKGTLTVFDNGDGRGLEQPALPTMKYSRFVEYKIDEKKGTVQQVWEYGKERGYDFYSPITSVVEYQKDRDTMFGFGGSINLFDVGKPTVGKLNEIDYKTKEVKVEIDVLSDKPNQTHYRALLVHPTQMFK” belongs “failed”; to “MFDWLTNSTAIIIILPVVVFVLTLFLARFKFRKPQRRIMLAADLSTIFLIIAVHFFMIVIFNRSFLLYILLFLFILGIVIVVLAAKKEGEIQFRKILRGYWRLCFFIFALLYVVLYLYGIIYSLILLF”, “failed”; to “MFELFQYDFMRNALLAATAISIFSPLLGVFLVLRRQSLMSDTLSHVSLAGVAFGVLLSWNPTITTLITVVIAAVFLEYLRTIYHNYMEIATAILMSAGLAIALLILNSSKGATSVSLEQYLFGSIITISLSQVIMLFVLAAVVLLGFILFLRPLYVMTFDEDTAFVDGLPVRWISIAFNIVTGVAIALMIPAAGALLVSAIMVLPASIAMRLGKSFKAVLFISAIVSFIGLNAGLIASYYMDAPASAAITLIFIVLFLVTSSLKRLIRA”, “failed”.
In the case of “MFETFFSTYLSSTIRFLFLLAPFFVVTMFLALTRGLSMAEKTSIIRRACVSAFILGVILFFAGPLLFNAIGITLNSFRIGAGSLLFLTAISLVNSGTRNHATGLPEEDRDDIAVVPLAIPVMIGPATIGAIMVYGAELKAVPEVAGGLLGLVSGLMILAGLLRLSGYLEKALGKTGLNIMSKISGLILSAMAAEIVLTGIAGFIASTSGA”, the protein production result is “failed”.
Consider “MFFGLTLGTAVATGGRDSTLKRAAPQASCMDVHNVTAEAETFTCNAYLATGEQTTLVDAGAMRGVVDVIREHADALDAVVLTHQHGDHVQRLDTVLDAFDAPLYAYGSHPRRDHALADGDTLTVGDEECEVVYTPGHADDHVSLVSESALFSGDVVVHDDGAFDDGSFGRTDRPGQSRERLIESIERILDRMPAGVEHMYSGHGGVFHGDVREVVERALERAERREPKYPDD”, for which the protein production entry is recorded as “failed”.
Consider “MFFKQFYDNHLSQASYLVGCQRTGEAIIIDPVRDLSKYIEVADSEGLTITQATETHIHADFASGIRDVAKRLNANIYVSGEGEDALGYKNMPSKTQFVKHGDIIQVGNVKLEVLHTPGHTPESISFLLTDLGGGSSVPMGLFSGDFIFVGDIGRPDLLEKSVQIKGSTEISAKQMYESVQNIKNLPDYVQIWPGHGAGSPCGKALGAIPISTIGYEKINNWAFNEIDETKFIESLTSNQPAPPHHFAQMKQVNQFGMNLYQSYDVYPSLDNKRVAFDLRSKEAFHGGHTKGTINIPYNKNFINQIGWYLDFEKDIDLIGDKSTVEKAKHTLQLIGFDKVAGYRLPKSGISTQSVHSADMTGKEEHVLDVRNDEEWNNGHLDQAVNIPHGKLLNENIPFNKEDKIYVHCQSGVRSSIAVGILESKGFENVVNIREGYQDFPESLKLEHHHHHH”, for which the protein production entry was “not failed”.
In the case of “MFFNFLIPPNSFSSFPEYVAFVVSLSYALNATLLLLYSRIFGVEVKEKAFIPVTLSFVAIDFTSIQGLRLFVGIPAYLGVVILTSLCILEGLALALTSSLALVNASRRHLAATWIAANVASSGLFMAFVGVS” it was “failed”; in that of “MFGISISSAILHFVIGGFAVALASIMADKVGGKLGGIIATMPAVYLAAIIALAIDHKGQQLIQMSIHLSTGAIVGIVSCIVTVFFTSIFIGKKNYRSGTVFAILCWFVISVAIFLVRHI”, “failed”; in that of “MFGKLLKKEIKELLNLGAIVSVIVVAVLYGSLGNVFKSTVEKSTVGQKVAIVREDTGTIAELAEKALGNMVDIVYAGSDLKEAEEAVKKEKAPAIIVIPKGFSQSLESGEKARLEIVWYLRGTGLSEAVSTGTISSLIESLKVQLASFLLNDPKKAQLLFDPLEIVQHTYLRGSLFKNHSPEAIMNVFYSQNIMIPILIMMLIIMSGSSLISSLAMEKENKTLETLLTMPVKREHIALAKIVGSAIVGLILAGIYMAGFYSYLNSLTQNVQGMGLNFKAVDFLLMGSSLFLSILAGLSLCMLLGMMAKDYRSAQLLTFPISILALVPMIANMIMDFSNLPGVLKVIVFLIPFSHPIMSPKLAFYGDYGLIVSGILYLLIFSIVTTVFVFRIFNSDYVVLGWQREKRLKFFSR”, “failed”.
To “MFGMTLVNIFVPKLNLYHFVVGVIYLFPMIVIGFKIVKNRNITGLPLFICSGIVGVWAILLHMKMNLGHDYEFFSGPIQETVMLILLLVAVPLSYYVFACSVGCKDTRNMKALKIFPVVAFFIIVITEILGISYYGMANYVLLFSFLLLIGPLLGGLYIWEIMSNIQFKNYTT” belongs “failed”; to “MFGQWEFDVSPTGGIAVASTEVEHFAGSQHEVDTAEVPSAAWGWSRIDHRTWHIVGLCIFGFLLAMLRGNHVGHVEDWFLITFAAVVLFVLARDLWGRRRGWIR”, “failed”; to “MFIEALILLCLVGAAAVFIAPDRYAHKLALGLSVPPLVVSLYMYAAFDGSGNALLGGDIAYETATEWLQLGQYTVSYHVGLDGISLPLVVLSTVLTTLAILSAWTPIDERQSEFYGLVLLLEGSLIGVFAALDFILWFVFWEAVLIPMYLLIGVWGGPRRKYAAIKFFVYTNIASLVMFIGYFALVFGLGDAVSSTGMPAVAQALRADQLGYLGTAAVGIGPDMLAMAAFLAMFVGFAVKVPVVPFHTWLPDAHVEAPTPVSVLLAGVLLKMGTYALLRFNFTMLPDQVETFAVPIALIAIISILYGALLALAQKDLKRIVAYSSVSSMGYVILGLVAYTVYGVGGATFQMIAHGLISGLLFMTVGVFYNATHTRMVGDMGGLADRMPVTAGIFIAGAFGYMGLPLMAGFMAELFVFIGAFQSAILPYAPVITAAGMFGIVVVAGYLLWAMQRSLFGPFRLETDYELERAPVHDIVPLLTLVALIIALGVAPDLIFEMIRDATHSVIDYDFGGDL”, “failed”.
